From publication PMC7252695

Legend:
[1] = target: T1, GST-TEK (Arabidopsis thaliana) (UniProt Q9SJG4); assay: EMSA; details: EMSA according to manufacturer's instructions (Thermo Scientific); buffer, salt, pH and temperature not stated
T1 sequence: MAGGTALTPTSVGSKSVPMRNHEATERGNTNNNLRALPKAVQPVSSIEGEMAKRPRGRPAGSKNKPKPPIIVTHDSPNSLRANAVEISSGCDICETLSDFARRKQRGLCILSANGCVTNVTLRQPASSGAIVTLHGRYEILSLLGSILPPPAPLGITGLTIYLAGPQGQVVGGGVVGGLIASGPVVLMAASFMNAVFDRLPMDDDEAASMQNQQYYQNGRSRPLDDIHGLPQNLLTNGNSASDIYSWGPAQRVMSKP

[2] = target: T1, GST-TEK (Arabidopsis thaliana); assay: competition; details: EMSA according to manufacturer's instructions (Thermo Scientific); buffer, salt, pH and temperature not stated

GCCCATATATAGTATCTTCCGCTGTTGTATATCTTGAGCAGCTTGAGGAAGCCTTTGCAAAAAAATAGAGTGAATTTTGAGTACAGTATGAATATCATTCAACAACATTTTCCATCCAAGCGACTTAGAAAATAAAATTTTGTCAGCTACCTTAAACTGTGTTTACGTCCTAAAAATTTGCACCAA (double strand) [CalS5 P11 fragment]
binding [1]: binds

GCCCATATATAGTATCTTCCGCTGTTGTATATCTTGAGCAGCTTGAGGAAGCCTTTGCAAAAAAATAGAGTGAATTTTGAGTACAGTATGAATATCATTCAACAACATTTTCCATCCAAGCGACTTAGAAAATAAAATTTTGTCAGCTACCTTAAACTGTGTTTACGTCCTAAAAATTTGCACCAA (double strand) [CalS5 P11 unlabeled competitor]
binding [2]: binds
